In US20240067734A1:

Biological target: di muNKG2D ECD Fc avi (murine)
Assay: ELISA; biotinylated antigen on streptavidin plate

di muNKG2D ECD Fc avi (murine), sequence (chain, as listed by the source limits assumed): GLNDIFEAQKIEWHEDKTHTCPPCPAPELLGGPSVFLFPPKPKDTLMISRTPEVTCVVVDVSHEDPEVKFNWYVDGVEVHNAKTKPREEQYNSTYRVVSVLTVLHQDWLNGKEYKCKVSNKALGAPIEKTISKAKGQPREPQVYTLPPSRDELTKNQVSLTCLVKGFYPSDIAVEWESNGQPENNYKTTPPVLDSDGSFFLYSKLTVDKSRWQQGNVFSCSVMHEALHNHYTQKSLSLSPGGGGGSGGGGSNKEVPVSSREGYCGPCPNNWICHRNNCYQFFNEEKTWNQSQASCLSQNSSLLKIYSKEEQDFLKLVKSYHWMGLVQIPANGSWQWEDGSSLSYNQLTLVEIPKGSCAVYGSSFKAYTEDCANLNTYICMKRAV

B1: anti-NKG2D antibody clone 001 (antibody, V domains shown)
VH: QQLEQSGGGLVTPGGSLKLCCIGSGFDFNTYWMTWVRQAPGKGLEWIGCIHGGSSGSTYYASWVNGRFTLSRDIDQSTGCLQVNSLTAADTAMYYCARPGYRSWSKTFDLWGQGTMVTVSS
VL: DIQMTQSPSSLSASVGDRVTITCRASQDISESLNWYQQKPGKAPKLLIYAASSLQSGVPSRFSGSGSGTDYTLTISSLQPEDFATYYCQQANSFPLTFGGGTKVEIK
**Q.** Which OD max does the source give for B1 here?
**A.** Its OD max is 0.2 OD.
